Measured values from patent US20260242478A1 (published 2026).

target: T1, Anti-CD28 Fab (SEQ ID NOs: 696, 697); test: phage ELISA; biotinylated anti-CD28 Fab on neutravidin plate, bound phage detected with anti-M13-HRP
T1 construct: In the phage ELISA the Fab was biotinylated and captured on neutravidin coated plates
T1 sequence (VH, as listed by the source, chain 1 of 2): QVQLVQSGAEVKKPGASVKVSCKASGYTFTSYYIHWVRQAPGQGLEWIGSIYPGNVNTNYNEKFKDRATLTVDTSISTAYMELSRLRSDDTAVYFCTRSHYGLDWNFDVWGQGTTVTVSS
T1 sequence (VL, as listed by the source, chain 2 of 2): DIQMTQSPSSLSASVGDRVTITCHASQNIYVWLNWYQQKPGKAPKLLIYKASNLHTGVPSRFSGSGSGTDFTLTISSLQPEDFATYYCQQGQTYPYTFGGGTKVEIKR
Method: (§1) Clonal phage were harvested as crude supematants and screened via standard ELISAs. […] Prior to the addition of clonal phage, wells were incubated with blocking buffer and CD28 antigen or blocking buffer alone. Without washing or aspirating, clonal phage supematants were then added to the wells and incubated for a short time. Wells were then washed followed by detection of bound phage using a horse radish conjugated anti-M13 antibody.

Point of comparison: SCSAGAMYTWPTCL [Phage-1613], “Phage binding ELISA, Anti-CD28 Fab signal” value 1.31. Against it:
- SCAAGAMWEWPKCF [Phage-1610] — higher, 1.32
- TCAAGAAYTWPVCF [Phage-1609] — higher, 1.32
- QCSAGATYAWPFCL [Phage-1615] — lower, 1.29
- SCAAGAHYPWPECL [Phage-1607] — higher, 1.32
- SCAEVFNYVWPFCF [Phage-1608] — higher, 1.32
- SCAAGATYTWPFCL [Phage-1617] — lower, 1.29
- SCSAGATYTWPACL [Phage-1605] — higher, 1.34
- LCAAGAAWEWPMCF [Phage-1614] — lower, 1.3
- TCAAGATYEWPSCL [Phage-1612] — higher, 1.32
- TCAAGVPYKWPPCL [Phage-1616] — lower, 1.29
- SCADGAIWEWPWCF [Phage-1611] — higher, 1.32
- TCSAGAHYSWPKCF [Phage-1606] — higher, 1.33
- RCAAVFSYTWPPCL [Phage-1618] — lower, 1.29

target: Anti-CD28 Fab (SEQ ID NOs: 696, 697); test: phage binding ELISA; biotinylated Fab on neutravidin plate, bound phage detected with anti-M13-HRP
Target sequence in this assay (VH, as listed by the source, chain 1 of 2): as the sequence (VH, as listed by the source, chain 1 of 2) above
Target sequence in this assay (VL, as listed by the source, chain 2 of 2): as the sequence (VL, as listed by the source, chain 2 of 2) above
Method: as §1

Point of comparison: TCSAGALWEWPMCF [Phage-1603], “Anti-CD28 Fab signal” value 1.35. Against it:
- TCSAGAAYEWPECF [Phage-1602] — higher, 1.36
- SCAAGATYGWPECF [Phage-1597] — higher, 1.36
- PCAAGAHYTWPTCL [Phage-1604] — lower, 1.34
- TCSAGANWVWPLCL [Phage-1595] — higher, 1.38
- TCSAGAGYPWPTCL [Phage-1600] — higher, 1.36
- TCSAGAHWVWPYCL [Phage-1596] — higher, 1.37
- SCAAGATWAWPACL [Phage-1598] — higher, 1.36
- TCSAGAAWTWPLCF [Phage-1601] — higher, 1.36
- LCSAGAMWEWPLCL [Phage-1599] — higher, 1.36

target: T2, Anti-CD28 Fab (SEQ ID NOs: 696, 697); test: phage ELISA; biotinylated anti-CD28 Fab captured on neutravidin plate, clonal phage detected with HRP anti-M13 antibody
T2 construct: In the phage ELISA the Fab was biotinylated and captured on neutravidin coated plates
T2 sequence (VH, as listed by the source, chain 1 of 2): as the sequence (VH, as listed by the source, chain 1 of 2) above
T2 sequence (VL, as listed by the source, chain 2 of 2): as the sequence (VL, as listed by the source, chain 2 of 2) above
Method: as §1

Point of comparison: SCAAGATYSWPACL [Phage-1624], “Phage binding ELISA, Anti-CD28 Fab signal” value 1.25. Against it:
- NCAAGAMYSWPTCL [Phage-1625] — the same, 1.25
- NCSAGATWPWPMCF [Phage-1622] — higher, 1.27
- RCAAGAMWTWPACF [Phage-1626] — the same, 1.25
- TCTAGFSYKWPTCL [Phage-1621] — higher, 1.28
- TCSAGASWGWPWCL [Phage-1632] — lower, 1.22
- SCAAGATWKWPECL [Phage-1628] — lower, 1.24
- TCAAGATYMWPVCL [Phage-1627] — lower, 1.24
- LCAAGAYYPWPLCF [Phage-1620] — higher, 1.28
- TCADGAFWQWPVCL [Phage-1631] — lower, 1.22
- TCAAGATWLWPWCL [Phage-1629] — lower, 1.23
- TCAAGAVWTWPICF [Phage-1630] — lower, 1.23
- SCSAGATYQWPYCF [Phage-1623] — higher, 1.26
- TCSAGATYKWPACF [Phage-1619] — higher, 1.29

target: Anti-CD28 Fab (SEQ ID NOs: 696, 697); test: phage binding ELISA on captured anti-CD28 Fab, wells pre-incubated with CD28 antigen as competitor
Target sequence in this assay (VH, as listed by the source, chain 1 of 2): as the sequence (VH, as listed by the source, chain 1 of 2) above
Target sequence in this assay (VL, as listed by the source, chain 2 of 2): as the sequence (VL, as listed by the source, chain 2 of 2) above
Method: (§2) Clonal phage were harvested as crude supematants and screened via standard ELISAs. […] Prior to the addition of clonal phage, wells were incubated with blocking buffer and CD28 antigen or blocking buffer alone. Without washing or aspirating, clonal phage supematants were then added to the wells and incubated for a short time. Wells were then washed followed by detection of bound phage using a horse radish conjugated anti-M13 antibody. Clonal phage of interest were then sent for sequence analysis.

Point of comparison: PCSDGVAYPWPYCV (Tested as clonal phage supernatant) [Phage-1638 (peptide-92 library clone, SEQ ID NO: 1934)], “Anti-CD28 Fab signal in the presence of CD28 (phage binding ELISA)” value 0.06. Against it:
- SCAAGAHWSWPVCF (Tested as clonal phage supernatant) [Phage-1639 (peptide-92 library clone, SEQ ID NO: 1935)] — higher, 0.08
- TCAAGANWPWPECL (Tested as clonal phage supernatant) [Phage-1636 (peptide-92 library clone, SEQ ID NO: 1932)] — higher, 0.08
- LCSAGAMYPWPVCL (Tested as clonal phage supernatant) [Phage-1640 (peptide-92 library clone, SEQ ID NO: 1936)] — higher, 0.08
- TCSAGATYSWPSCF (Tested as clonal phage supernatant) [Phage-1634 (peptide-92 library clone, SEQ ID NO: 1930)] — higher, 0.09
- LCEEFFHYSWPLCL (Tested as clonal phage supernatant) [Phage-1637 (peptide-92 library clone, SEQ ID NO: 1933)] — the same, 0.06
- LCAAGATYPWPDCV (Tested as clonal phage supernatant) [Phage-1635 (peptide-92 library clone, SEQ ID NO: 1931)] — lower, 0.05
- SCSAGATWAWPQCF (Tested as clonal phage supernatant) [Phage-1641 (peptide-92 library clone, SEQ ID NO: 1937)] — higher, 0.08
- TCSAGATYSWPYCL (Tested as clonal phage supernatant) [Phage-1633 (peptide-92 library clone, SEQ ID NO: 1929)] — higher, 0.07

target: T1, Anti-CD28 Fab (SEQ ID NOs: 696, 697); test: phage ELISA on captured anti-CD28 Fab; wells pre-incubated with CD28 antigen as competitor;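 further: clonal phage from crude supernatants added to wells pretreated with blocking buffer with or without CD28, bound phage read by ELISA with HRP-conjugated anti-M13 antibody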
Method: as §2

Point of comparison: SCAEVFNYVWPFCF [Phage-1608], “Phage binding ELISA, Anti-CD28 Fab signal in the presence of CD28” value 0.07. Against it:
- SCAAGAMWEWPKCF [Phage-1610] — higher, 0.09
- TCAAGAAYTWPVCF [Phage-1609] — higher, 0.08
- SCSAGAMYTWPTCL [Phage-1613] — higher, 0.08
- QCSAGATYAWPFCL [Phage-1615] — higher, 0.08
- SCAAGAHYPWPECL [Phage-1607] — lower, 0.05
- SCAAGATYTWPFCL [Phage-1617] — the same, 0.07
- SCSAGATYTWPACL [Phage-1605] — the same, 0.07
- LCAAGAAWEWPMCF [Phage-1614] — lower, 0.06
- TCAAGATYEWPSCL [Phage-1612] — higher, 0.09
- TCAAGVPYKWPPCL [Phage-1616] — lower, 0.06
- SCADGAIWEWPWCF [Phage-1611] — the same, 0.07
- TCSAGAHYSWPKCF [Phage-1606] — the same, 0.07
- RCAAVFSYTWPPCL [Phage-1618] — the same, 0.07

target: T2, Anti-CD28 Fab (SEQ ID NOs: 696, 697); test: as above
Method: as §2

Point of comparison: TCAAGATYMWPVCL [Phage-1627], “Phage binding ELISA, Anti-CD28 Fab signal in the presence of CD28” value 0.07. Against it:
- NCAAGAMYSWPTCL [Phage-1625] — the same, 0.07
- NCSAGATWPWPMCF [Phage-1622] — lower, 0.06
- RCAAGAMWTWPACF [Phage-1626] — lower, 0.06
- TCTAGFSYKWPTCL [Phage-1621] — higher, 0.09
- TCSAGASWGWPWCL [Phage-1632] — the same, 0.07
- SCAAGATWKWPECL [Phage-1628] — the same, 0.07
- LCAAGAYYPWPLCF [Phage-1620] — lower, 0.06
- SCAAGATYSWPACL [Phage-1624] — the same, 0.07
- TCADGAFWQWPVCL [Phage-1631] — the same, 0.07
- TCAAGATWLWPWCL [Phage-1629] — the same, 0.07
- TCAAGAVWTWPICF [Phage-1630] — lower, 0.05
- SCSAGATYQWPYCF [Phage-1623] — lower, 0.06
- TCSAGATYKWPACF [Phage-1619] — lower, 0.05

target: Anti-CD28 Fab (SEQ ID NOs: 696, 697); test: phage binding ELISA; biotinylated anti-CD28 Fab on neutravidin plate, clonal phage, anti-M13 HRP detection
Target sequence in this assay (VH, as listed by the source, chain 1 of 2): as the sequence (VH, as listed by the source, chain 1 of 2) above
Target sequence in this assay (VL, as listed by the source, chain 2 of 2): as the sequence (VL, as listed by the source, chain 2 of 2) above
Method: as §2

Point of comparison: SCSAGATWAWPQCF (Tested as clonal phage supernatant) [Phage-1641 (peptide-92 library clone, SEQ ID NO: 1937)], “Anti-CD28 Fab signal (phage binding ELISA)” value 1.19. Against it:
- SCAAGAHWSWPVCF (Tested as clonal phage supernatant) [Phage-1639 (peptide-92 library clone, SEQ ID NO: 1935)] — higher, 1.2
- TCAAGANWPWPECL (Tested as clonal phage supernatant) [Phage-1636 (peptide-92 library clone, SEQ ID NO: 1932)] — higher, 1.21
- LCSAGAMYPWPVCL (Tested as clonal phage supernatant) [Phage-1640 (peptide-92 library clone, SEQ ID NO: 1936)] — the same, 1.19
- TCSAGATYSWPSCF (Tested as clonal phage supernatant) [Phage-1634 (peptide-92 library clone, SEQ ID NO: 1930)] — higher, 1.21
- LCEEFFHYSWPLCL (Tested as clonal phage supernatant) [Phage-1637 (peptide-92 library clone, SEQ ID NO: 1933)] — higher, 1.21
- LCAAGATYPWPDCV (Tested as clonal phage supernatant) [Phage-1635 (peptide-92 library clone, SEQ ID NO: 1931)] — higher, 1.21
- PCSDGVAYPWPYCV (Tested as clonal phage supernatant) [Phage-1638 (peptide-92 library clone, SEQ ID NO: 1934)] — higher, 1.2
- TCSAGATYSWPYCL (Tested as clonal phage supernatant) [Phage-1633 (peptide-92 library clone, SEQ ID NO: 1929)] — higher, 1.22

target: Anti-CD28 Fab (SEQ ID NOs: 696, 697); test: phage binding ELISA; Fab-coated wells pre-incubated with CD28 antigen as competitor;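 further: clonal phage supernatants added to wells preincubated with CD28 antigen or blocking buffer only, bound phage detected with HRP-conjugated anti-M13 antibody, buffer-only wells as control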
Target sequence in this assay (VH, as listed by the source, chain 1 of 2): as the sequence (VH, as listed by the source, chain 1 of 2) above
Target sequence in this assay (VL, as listed by the source, chain 2 of 2): as the sequence (VL, as listed by the source, chain 2 of 2) above
Method: as §1

Point of comparison: LCSAGAMWEWPLCL [Phage-1599], “Anti-CD28 Fab signal in the presence of CD28” value 0.07. Against it:
- TCSAGALWEWPMCF [Phage-1603] — lower, 0.06
- TCSAGAAYEWPECF [Phage-1602] — lower, 0.06
- SCAAGATYGWPECF [Phage-1597] — the same, 0.07
- PCAAGAHYTWPTCL [Phage-1604] — the same, 0.07
- TCSAGANWVWPLCL [Phage-1595] — the same, 0.07
- TCSAGAGYPWPTCL [Phage-1600] — lower, 0.06
- TCSAGAHWVWPYCL [Phage-1596] — higher, 0.09
- SCAAGATWAWPACL [Phage-1598] — lower, 0.06
- TCSAGAAWTWPLCF [Phage-1601] — lower, 0.06
